Measurements reported in publication PMC4772727.
Like-named read-outs stand apart in the source and are kept apart here.

T1: GST-p52 (WT) (Homo sapiens, UniProt Q00653 1-454)
T1 sequence: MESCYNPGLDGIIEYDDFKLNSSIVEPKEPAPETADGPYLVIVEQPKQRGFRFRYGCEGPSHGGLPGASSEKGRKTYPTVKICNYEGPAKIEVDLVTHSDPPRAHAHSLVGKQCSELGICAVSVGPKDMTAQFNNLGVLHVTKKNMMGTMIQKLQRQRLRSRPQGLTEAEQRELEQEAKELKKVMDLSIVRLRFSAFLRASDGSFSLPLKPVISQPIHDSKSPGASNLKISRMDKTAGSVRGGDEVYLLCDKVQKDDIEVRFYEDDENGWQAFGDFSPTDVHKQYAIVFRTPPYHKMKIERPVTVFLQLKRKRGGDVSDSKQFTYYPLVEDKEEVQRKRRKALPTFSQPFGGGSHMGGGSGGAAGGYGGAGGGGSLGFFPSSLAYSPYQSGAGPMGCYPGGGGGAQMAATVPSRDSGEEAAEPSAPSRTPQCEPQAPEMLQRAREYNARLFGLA

T2: GST-ETS1 (Homo sapiens, UniProt P14921 1-441)
T2 sequence: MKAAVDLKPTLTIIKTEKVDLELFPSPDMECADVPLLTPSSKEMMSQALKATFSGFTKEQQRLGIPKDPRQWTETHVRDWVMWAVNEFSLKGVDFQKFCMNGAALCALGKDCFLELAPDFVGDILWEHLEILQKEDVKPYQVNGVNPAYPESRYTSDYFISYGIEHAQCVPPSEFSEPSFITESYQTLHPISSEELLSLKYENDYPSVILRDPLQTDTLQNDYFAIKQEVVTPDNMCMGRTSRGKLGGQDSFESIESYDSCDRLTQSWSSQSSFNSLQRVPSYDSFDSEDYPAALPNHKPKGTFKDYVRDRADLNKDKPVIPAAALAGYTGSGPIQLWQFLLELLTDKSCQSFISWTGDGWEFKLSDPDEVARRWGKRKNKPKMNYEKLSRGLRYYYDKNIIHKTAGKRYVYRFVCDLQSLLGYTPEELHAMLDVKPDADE

T3: GST-p52 (WT);GST-ETS1 (Homo sapiens;Homo sapiens, UniProt Q00653;P14921 1-454;1-441, |)
T3 sequence 1: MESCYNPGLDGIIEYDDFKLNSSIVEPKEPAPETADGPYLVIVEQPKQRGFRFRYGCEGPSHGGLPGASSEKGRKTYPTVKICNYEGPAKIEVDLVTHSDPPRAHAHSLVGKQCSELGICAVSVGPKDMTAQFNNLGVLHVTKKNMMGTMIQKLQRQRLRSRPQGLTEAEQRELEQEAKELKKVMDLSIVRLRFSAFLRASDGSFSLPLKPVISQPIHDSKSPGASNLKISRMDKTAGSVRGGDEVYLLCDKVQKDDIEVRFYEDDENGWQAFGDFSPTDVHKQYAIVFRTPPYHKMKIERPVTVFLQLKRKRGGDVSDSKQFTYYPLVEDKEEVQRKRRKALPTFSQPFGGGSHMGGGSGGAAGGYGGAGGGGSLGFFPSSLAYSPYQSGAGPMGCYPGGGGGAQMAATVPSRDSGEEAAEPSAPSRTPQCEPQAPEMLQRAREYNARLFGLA
T3 sequence 2: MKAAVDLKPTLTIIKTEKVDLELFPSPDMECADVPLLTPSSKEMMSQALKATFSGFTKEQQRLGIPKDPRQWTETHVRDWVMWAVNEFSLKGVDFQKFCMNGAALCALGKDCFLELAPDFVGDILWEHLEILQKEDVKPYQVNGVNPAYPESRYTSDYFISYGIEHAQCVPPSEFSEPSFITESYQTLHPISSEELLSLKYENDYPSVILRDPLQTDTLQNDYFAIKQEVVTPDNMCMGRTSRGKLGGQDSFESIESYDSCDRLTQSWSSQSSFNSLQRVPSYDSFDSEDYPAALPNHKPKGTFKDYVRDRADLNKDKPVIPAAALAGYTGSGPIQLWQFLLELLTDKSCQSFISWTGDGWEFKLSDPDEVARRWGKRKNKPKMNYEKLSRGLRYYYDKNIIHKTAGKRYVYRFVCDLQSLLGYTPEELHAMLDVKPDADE


How the values were obtained:
Test in all cases: EMSA
GST-p52 (WT) [1] = target: T1, GST-p52 (WT)
GST-ETS1 [2] = target: T2, GST-ETS1
GST-p52 (WT) [3] = target: T1, GST-p52 (WT); remark: listed apart in the source
GST-ETS1 [4] = target: T2, GST-ETS1; remark: listed apart in the source
GST-p52 (WT);GST-ETS1 = target: T3, GST-p52 (WT);GST-ETS1

Row | Binder | binding result (GST-p52 (WT) [1]) | binding result (GST-ETS1 [2]) | binding result (GST-p52 (WT) [3]) | binding result (GST-ETS1 [4]) | binding result (GST-p52 (WT);GST-ETS1)
1 | WT TERT promoter probe (dsDNA) DNA 1: GTCCCGACCCCTCCCGGGTCCCCGGC DNA 2: GCCGGGGACCCGGGAGGGGTCGGGAC | binds | no binding |  |  | 
2 | C250T TERT promoter probe (dsDNA) DNA 1: GTCCCGACCCCTTCCGGGTCCCCGGC DNA 2: GCCGGGGACCCGGAAGGGGTCGGGAC |  |  | binds | binds | binds
